Patent US20220396632A1 (VERSEAU THERAPEUTICS, published 2022)
Positions count from the first letter of the chain named. Non-standard residues stand in square brackets, D forms with d. No end group written: not given here. *: point of attachment. Biotin = O=C1N[C@H]2[C@H](CS[C@H]2CCCCC(=O)*)N1; sY = N[C@@H](Cc1ccc(OS(=O)(=O)O)cc1)C(=O)O

Legend:
[1] = molecular target: T1, Cynomolgus PSGL-1(ECD)-hFc1 (cynomolgus macaque); assay: ELISA, 20 nM mAb on plate cyno PSGL-1(ECD)-Fc
T1 construct: also called Cyno PSGL1-Fc; Cyno PSGL-1(ECD)-Fc
Description: Antibody binding to plate-immobilized cyno PSGL-1(ECD) was determined either at one concentration (20 nM) or by generating full antibody binding curves (0.003-200 nM). A typical ELISA was performed by overnight coating at 4° C. with 3 ug/mL/25 ul per well of recombinant cyno PSGL-1(ECD) protein in PBS, pH 7.4, in high binding half-well plates (Corning Cat. #3690). […] Anti-PSGL-1 IgG in assay buffer (blocking buffer containing 0.05% tween 20) was added into test and control wells (20 nM/25 ul/well) and the plate incubated for 45 min at 37° C. […] The plate was incubated for 45 min at 37° C., and mAb bound to plate-immobilized target determined at A450 nm using HRP substrate (3,3′,5,5′-tetramethylbenzidine (TMB)). For each antibody, duplicate values were averaged and assay background subtracted.

[2] = molecular target: T2, Biotin PSGL-1(42-62) peptide, unmodified (human, C-terminal Lys-biotin); assay: ELISA, immobilized biotin peptide
T2 construct: Residues 42-62 followed by GGGK-biotin; also called WT; wild-type
T2 peptide: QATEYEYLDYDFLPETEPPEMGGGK
Description: (§1) A typical ELISA was performed by coating high binding half-well plates (Corning Cat. #3690) with 3 ug/mL/25 ul per well of biotinylated N-terminal PSGL-1 peptides, which incorporated residues 42 to 62 of the protein, in PBS, pH 7.4, overnight at 4° C. The peptide was unmodified or contained sulfated tyrosine at all 3 tyrosine positions (46, 48, and 51) or at one position (tyr51) (Table 7).
(§2) PSGL-1 protein or peptide served as a positive control. […] […] […] For each antibody, duplicate values were averaged and average assay background was subtracted.

[3] = molecular target: T3, Scrambled Y42,52,63(SO3) PSGL-1(42-62) biotin peptide (sulfotyrosine at peptide positions 1, 11 and 22; C-terminal Lys-biotin); assay: ELISA, immobilized biotin peptide
T3 peptide: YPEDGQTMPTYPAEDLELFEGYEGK
Description: as §1, §2

[4] = molecular target: T4, Biotin Y46,48,51(SO3) PSGL-1(42-62) peptide (human, sulfotyrosine at Y46, Y48 and Y51; C-terminal Lys-biotin); assay: ELISA, immobilized biotin peptide
T4 construct: also called fully sulfated N-terminal PSGL-1 peptide
T4 peptide: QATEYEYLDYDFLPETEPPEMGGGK
Description: as §1, §2

[5] = molecular target: T5, Human fibrinogen protein (ThermoFisher, RP-43142) (human, UniProt P02671 20-629; P02675 31-491; P02679 27-453, limits assumed, natural sulfotyrosines); assay: ELISA, 50 nM mAb
T5 construct: mature; Native dimer with 3 pairs of non-identical chains; also called gamma-fibrinogen; γ fibrinogen protein
T5 sequence (looked up) 1: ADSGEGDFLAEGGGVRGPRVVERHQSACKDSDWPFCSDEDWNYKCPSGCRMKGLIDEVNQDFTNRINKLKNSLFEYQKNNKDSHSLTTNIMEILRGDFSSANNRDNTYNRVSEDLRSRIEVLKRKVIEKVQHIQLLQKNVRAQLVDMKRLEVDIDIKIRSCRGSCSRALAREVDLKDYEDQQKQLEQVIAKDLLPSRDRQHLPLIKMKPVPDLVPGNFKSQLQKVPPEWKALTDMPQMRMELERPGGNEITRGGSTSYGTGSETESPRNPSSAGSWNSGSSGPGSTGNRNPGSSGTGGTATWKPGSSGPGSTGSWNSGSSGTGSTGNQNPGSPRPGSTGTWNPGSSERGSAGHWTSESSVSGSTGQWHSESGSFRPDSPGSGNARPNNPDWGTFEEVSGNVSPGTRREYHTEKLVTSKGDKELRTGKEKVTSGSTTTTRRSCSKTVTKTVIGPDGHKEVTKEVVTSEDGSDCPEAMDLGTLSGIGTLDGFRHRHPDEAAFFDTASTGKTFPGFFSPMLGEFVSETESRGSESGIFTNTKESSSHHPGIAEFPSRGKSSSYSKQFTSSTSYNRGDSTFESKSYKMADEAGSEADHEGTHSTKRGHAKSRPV
T5 sequence (looked up) 2: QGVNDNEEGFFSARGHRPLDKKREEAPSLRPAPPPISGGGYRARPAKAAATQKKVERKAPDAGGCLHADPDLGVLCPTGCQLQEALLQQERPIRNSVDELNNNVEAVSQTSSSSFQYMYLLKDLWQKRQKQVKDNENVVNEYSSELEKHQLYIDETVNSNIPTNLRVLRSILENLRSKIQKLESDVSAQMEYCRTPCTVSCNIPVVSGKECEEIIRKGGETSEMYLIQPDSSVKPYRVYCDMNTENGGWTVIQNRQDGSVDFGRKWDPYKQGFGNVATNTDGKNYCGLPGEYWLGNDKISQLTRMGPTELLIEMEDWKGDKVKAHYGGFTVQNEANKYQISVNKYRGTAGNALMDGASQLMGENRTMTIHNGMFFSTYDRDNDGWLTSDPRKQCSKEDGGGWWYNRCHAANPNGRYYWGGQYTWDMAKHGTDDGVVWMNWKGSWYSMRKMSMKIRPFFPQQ
T5 sequence (looked up) 3: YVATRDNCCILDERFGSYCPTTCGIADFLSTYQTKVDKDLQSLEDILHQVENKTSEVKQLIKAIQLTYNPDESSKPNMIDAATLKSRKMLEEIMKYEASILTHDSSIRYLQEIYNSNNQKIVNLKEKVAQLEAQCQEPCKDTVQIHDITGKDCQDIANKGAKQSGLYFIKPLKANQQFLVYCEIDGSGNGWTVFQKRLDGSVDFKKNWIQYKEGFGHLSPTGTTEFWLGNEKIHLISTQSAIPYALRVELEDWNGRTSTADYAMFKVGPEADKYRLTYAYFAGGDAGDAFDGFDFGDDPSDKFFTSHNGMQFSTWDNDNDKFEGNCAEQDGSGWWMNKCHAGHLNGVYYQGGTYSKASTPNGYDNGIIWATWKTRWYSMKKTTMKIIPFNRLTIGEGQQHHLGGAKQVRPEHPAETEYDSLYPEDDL
Description: (§3) Recombinant PSGL-1-hFc1 chimera protein consisting of PSGL-1's extracellular domain (ECD) served as a positive control. […] Primary antibody was added (25 ul per well) in duplicate at 50 nM in assay buffer (blocking buffer containing 0.05% Tween®20) into test and control (just blocked) wells and the plate incubated for 45 min at 37° C.

[6] = molecular target: T6, Sulfotyrosine CCR2b biotin peptide (human); assay: ELISA, 50 nM mAb
T6 construct: also called CCR2b peptide
T6 peptide: TTFFD[sY]D[sY]GAPSHGGK(Biotin)
Description: as §3

[7] = molecular target: T7, Sulfotyr fibrinogen γ peptide (not fully specified; Y8 and Y12 sulfated (SO3); C-terminal biotin); assay: ELISA, 50 nM mAb
T7 construct: also called Fibrinogen gamma peptide; human sulfotyrosinylated fibrinogen peptide
T7 peptide: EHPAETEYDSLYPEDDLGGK
Description: as §3

[8] = molecular target: T8, Human complement C4 protein (Millipore Sigma, Cat. 204886) (human, UniProt P0C0L4 20-675; P0C0L4 680-1446; P0C0L4 1454-1744, limits assumed, natural sulfotyrosines); assay: ELISA, 50 nM mAb
T8 construct: mature
Description: as §3

SulfoTyr C4 peptide = molecular target: T9, SulfoTyr C4 peptide (not fully specified; Y4, Y7 and Y9 sulfated (SO3); C-terminal biotin); assay: ELISA, 50 nM mAb
T9 construct: also called C4 alpha chain peptide; human sulfotyrosinylated C4 peptide
T9 peptide: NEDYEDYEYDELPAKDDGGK
Description: as §3

SulfoCCK biotin peptide = molecular target: T10, SulfoCCK biotin peptide (human); assay: ELISA, 50 nM mAb
T10 construct: also called sulfotyrosine CCK peptide
T10 peptide: SHRISDRD[sY]MGWMDFGGK(Biotin)
Description: as §3

[9] = molecular target: T11, Recombinant human PSGL-1(ECD)-hFc1 (R&D Systems, Cat. 3345-PS) (human, UniProt Q14242 42-305); assay: ELISA, 50 nM mAb
T11 construct: Bought; Gln42-Val295 counted on AAC50061; also called PSGL-1-Fc; PSGL-1-hFc1 chimera; not shown: human IgG1 Fc, Pro100-Lys330
T11 sequence: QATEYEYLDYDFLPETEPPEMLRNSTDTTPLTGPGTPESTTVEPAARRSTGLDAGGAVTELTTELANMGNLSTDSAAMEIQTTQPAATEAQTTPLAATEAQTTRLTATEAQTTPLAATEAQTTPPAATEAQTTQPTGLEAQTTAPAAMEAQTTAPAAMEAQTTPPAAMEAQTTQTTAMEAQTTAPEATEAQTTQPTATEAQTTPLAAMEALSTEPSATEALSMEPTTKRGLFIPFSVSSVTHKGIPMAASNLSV
Description: as §3

T8 sequence (P0C0L4 20-675 limits assumed, form in doubt, chain 1 of 3): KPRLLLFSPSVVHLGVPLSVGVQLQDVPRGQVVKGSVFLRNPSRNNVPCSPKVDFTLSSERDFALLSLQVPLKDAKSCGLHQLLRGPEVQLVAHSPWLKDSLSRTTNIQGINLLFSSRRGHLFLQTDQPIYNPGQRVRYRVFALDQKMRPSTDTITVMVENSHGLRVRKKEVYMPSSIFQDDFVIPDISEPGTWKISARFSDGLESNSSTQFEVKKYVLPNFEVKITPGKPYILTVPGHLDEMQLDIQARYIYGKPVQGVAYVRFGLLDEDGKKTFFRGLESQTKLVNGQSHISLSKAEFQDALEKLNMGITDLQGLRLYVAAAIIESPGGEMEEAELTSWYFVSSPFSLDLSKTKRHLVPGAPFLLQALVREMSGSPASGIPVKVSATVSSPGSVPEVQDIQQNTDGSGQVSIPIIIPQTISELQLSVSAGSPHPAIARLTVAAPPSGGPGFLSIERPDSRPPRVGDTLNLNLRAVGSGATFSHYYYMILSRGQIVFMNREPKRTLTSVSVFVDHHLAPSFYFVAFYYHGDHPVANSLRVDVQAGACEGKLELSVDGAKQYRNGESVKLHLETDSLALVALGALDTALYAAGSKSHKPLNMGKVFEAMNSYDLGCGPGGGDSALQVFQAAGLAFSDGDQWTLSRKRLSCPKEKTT
T8 sequence (P0C0L4 680-1446 limits assumed, form in doubt, chain 2 of 3): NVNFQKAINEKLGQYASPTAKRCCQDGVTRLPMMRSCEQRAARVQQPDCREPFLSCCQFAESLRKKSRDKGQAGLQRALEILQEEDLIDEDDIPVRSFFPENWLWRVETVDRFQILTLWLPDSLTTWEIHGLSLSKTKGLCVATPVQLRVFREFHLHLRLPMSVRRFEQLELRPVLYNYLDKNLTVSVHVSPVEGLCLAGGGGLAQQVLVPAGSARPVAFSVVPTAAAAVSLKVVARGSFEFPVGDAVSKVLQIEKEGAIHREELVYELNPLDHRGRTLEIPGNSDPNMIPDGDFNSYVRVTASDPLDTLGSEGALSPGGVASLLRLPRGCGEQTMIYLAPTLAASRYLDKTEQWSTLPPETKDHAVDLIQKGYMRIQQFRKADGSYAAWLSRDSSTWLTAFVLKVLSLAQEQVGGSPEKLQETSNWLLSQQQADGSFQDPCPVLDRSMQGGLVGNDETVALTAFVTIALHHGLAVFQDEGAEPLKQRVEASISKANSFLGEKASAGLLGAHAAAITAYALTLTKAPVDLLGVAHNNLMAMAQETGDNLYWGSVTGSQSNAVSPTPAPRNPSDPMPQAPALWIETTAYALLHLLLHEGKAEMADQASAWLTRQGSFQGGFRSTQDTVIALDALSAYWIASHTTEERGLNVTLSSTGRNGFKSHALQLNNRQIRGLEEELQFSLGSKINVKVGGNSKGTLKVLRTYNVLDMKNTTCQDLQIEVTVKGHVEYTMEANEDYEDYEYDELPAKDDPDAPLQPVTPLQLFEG
T8 sequence (P0C0L4 1454-1744 limits assumed, form in doubt, chain 3 of 3): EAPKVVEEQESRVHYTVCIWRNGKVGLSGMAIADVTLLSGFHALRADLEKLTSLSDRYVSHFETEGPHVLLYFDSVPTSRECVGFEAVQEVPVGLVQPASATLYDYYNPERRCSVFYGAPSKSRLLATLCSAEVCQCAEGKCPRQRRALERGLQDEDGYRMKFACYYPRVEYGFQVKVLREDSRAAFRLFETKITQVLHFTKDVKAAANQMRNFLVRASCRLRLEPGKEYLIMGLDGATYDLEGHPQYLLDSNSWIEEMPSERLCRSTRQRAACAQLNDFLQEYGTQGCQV

B1: 08C10 (antibody, IgG4, V domains shown)
VH: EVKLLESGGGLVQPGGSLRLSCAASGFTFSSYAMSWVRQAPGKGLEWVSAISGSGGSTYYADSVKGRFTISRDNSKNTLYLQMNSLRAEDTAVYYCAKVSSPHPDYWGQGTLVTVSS
VL: LPVLTQPSSLSASPGASASLTCTLRSGLNVGTYRMYWYQQRPGSPPRYLLRYKSNSDKQQGSGVPSRFSGSKDASANAGILLISGLQSEDEADYYCLIWHNSAWVFGGGTKLTVL
Q: How did the A450nm [1] turn out when B1 was run?
A: 0.31 A450 nm

Q: What about the EC50 [2] of the same binder?
A: ~500 nM

Q: Does B1 bind [3]?
A: no binding (tested: 20 nM)

Q: And the “A450nm, 20 nM mAb” value [4]?
A: 2.57 A450nm

Q: And the EC50 [4]?
A: 0.33 nM

Q: What about the “binding normalized to PSGL-1” value [5] of the same binder?
A: 0.46

Q: What about the “binding normalized to PSGL-1” value [6] of the same binder?
A: 1.27

Q: What about the “binding normalized to PSGL-1” value [7] of the same binder?
A: 1.18

Q: And the “binding normalized to PSGL-1” value [8]?
A: 1.22

Q: What about the “binding normalized to PSGL-1” value (SulfoTyr C4 peptide) of the same binder?
A: 1.14

Q: And the “binding normalized to PSGL-1” value (SulfoCCK biotin peptide)?
A: 1.02

Q: What about the A450nm [9] of the same binder?
A: 2.3 A450nm

B2: 10B03 (antibody, IgG4, V domains shown)
VH: EVKLLESGGDLVQPGGSLRLSCAASGLTFSNYAMSWVRQAPGKGLEWVSAISGSGDNTYYADSVKGRFTISRDNSKNTLYLQMNSLRADDTAVYFCAKRDSWGQGTLVTVSS
VL: QAVLTQPPSASGTPGQRVTISCSGSTSNIGSRDVYWYQHLPGTAPKLVIYRNDQRPSGVPDRFSGSKSGTSASLAISGLRSEDDADYYCAVWDNSLRGRVFGGGTKLTVL
Q: With B2 as the binder, how does the A450nm [1] read?
A: 0.68 A450 nm

Q: What about the “A450nm, 20 nM mAb” value [4] of the same binder?
A: 2.68 A450nm

Q: And the “binding normalized to PSGL-1” value [5]?
A: 0.68

Q: And the “binding normalized to PSGL-1” value [6]?
A: 0.98

Q: What about the “binding normalized to PSGL-1” value [7] of the same binder?
A: 1.18

Q: And the “binding normalized to PSGL-1” value [8]?
A: 1.16

Q: What about the “binding normalized to PSGL-1” value (SulfoTyr C4 peptide) of the same binder?
A: 1.08

Q: And the “binding normalized to PSGL-1” value (SulfoCCK biotin peptide)?
A: 0.56

Q: And the A450nm [9]?
A: 2.18 A450nm

B3: 03B03 (antibody, IgG4, V domains shown)
VH: EVQLVQSGGGLVQPGGSLRLSCAATGFTVSRNYMTWVREAPGKGLEWVAGIYKSGTTSYTESVKGRFTISRDNSKNTLYLEMSRLRAEDTAVYYCAKSTSTWGQGTQVTVSS
VL: DIVMTQSPLSLPVTLGQPASISCRASQSPGYSDGNTYLNWFQQRPGQSPRRLIYKVSNRDPGVPDRFSGSGSGTDFTLKISRVEAEDVGVYYCMQATHWPSFGQGTRLEIK
Q: Which A450nm [1] does the source give for B3 here?
A: 0.45 A450 nm

Q: What about the “A450nm, 20 nM mAb” value [2] of the same binder?
A: 2.21 A450nm

Q: What about the “A450nm, 20 nM mAb” value [3] of the same binder?
A: 0.04 A450nm

Q: Does B3 bind [3]?
A: no binding (tested: 20 nM)

Q: And the “A450nm, 20 nM mAb” value [4]?
A: 2.5 A450nm

Q: And the “binding normalized to PSGL-1” value [5]?
A: 0.27

Q: And the “binding normalized to PSGL-1” value [6]?
A: 0.89

Q: What about the “binding normalized to PSGL-1” value [7] of the same binder?
A: 1.01

Q: What about the “binding normalized to PSGL-1” value [8] of the same binder?
A: 0.94

Q: What about the “binding normalized to PSGL-1” value (SulfoTyr C4 peptide) of the same binder?
A: 1

Q: And the “binding normalized to PSGL-1” value (SulfoCCK biotin peptide)?
A: 0.98

B4: 03D01 (antibody, IgG4, V domains shown)
VH: B3 VH with T60I
VL: DVVMTQSPVSLPVTLGQPASISCRSSRNLLYSNGNTYLNWFHQRPGQSPRRLIYKVSNQDSGVPDRFSGSGSGTDFTLKISRVEAEDVGVYYCMQGTHWPTTFGQGTRLEIK
Q: Which A450nm [1] does the source give for B4 here?
A: 0.71 A450 nm

Q: And the “A450nm, 20 nM mAb” value [2]?
A: 2.52 A450nm

Q: What about the “A450nm, 20 nM mAb” value [4] of the same binder?
A: 2.67 A450nm

Q: And the “binding normalized to PSGL-1” value [5]?
A: -0.2

Q: Does B4 bind [5]?
A: no binding (tested: 50 nM)

Q: What about the “binding normalized to PSGL-1” value [6] of the same binder?
A: 0.94

Q: What about the “binding normalized to PSGL-1” value [7] of the same binder?
A: 1.17

Q: What about the “binding normalized to PSGL-1” value [8] of the same binder?
A: 1.07

Q: And the “binding normalized to PSGL-1” value (SulfoTyr C4 peptide)?
A: 1.13

Q: What about the “binding normalized to PSGL-1” value (SulfoCCK biotin peptide) of the same binder?
A: 0.94
